As a reminder, the IC50 is the concentration needed to halve the response being measured. A low value points to greater potency in that assay.

The first experiment addresses T1, HLA-A2.1 (heavy chain with human beta 2-microglobulin) (human).
For VLYRYGSFSV [gp100 peptide G10-5 (VLYRYGSFSV)], 13 nM corresponded to half-maximal inhibition (IC50) and the “Ratio to Standard” value is 0.38.

Regarding LLDGTATLRL [gp100 peptide G10-4 (LLDGTATLRL)], the IC50 was determined as 483 nM and the “Ratio to Standard” value was 0.01.

Another experiment concerns the target T1, HLA-A2.1 (heavy chain with human beta …). This is another data set of the same source.
Regarding ATWGQYWQV [G9-154-1A], the IC50 was determined as 5.2 nM. This counts as single-digit nanomolar.

Consider KTFGQYWQV [G9-154-3F], for which the IC50 was 21 nM. This IC50 is about 4-fold higher than that of the molecule before.

LTWGQYWQV [G9-154-1L] had an IC50 of 3.4 nM.

WTWGQYWQV [G9-154-1W]: the IC50 is 60 nM.

Consider WLWGQYWQV [G9-154-1W2L], for which half-maximal inhibition (IC50) required 2.8 nM.

Molecule KTYGQYWQV [G9-154-3Y] returned an IC50 of 30 nM.

On to KIWGQYWQV [G9-154-2I], for which the concentration for half-maximal inhibition (IC50) was found to be 3 nM.

On to YLWGQYWQV [G9-154-1Y2L], for which the IC50 was 1.7 nM.

Turning to ALWGQYWQV [G9-154-1A2L], half-maximal inhibition (IC50) was put at 2.3 nM.

In turn, LLWGQYWQV [G9-154-1L2L] gave a 50% inhibitory concentration (IC50) of 1.6 nM.

The molecule FLWGQYWQV [G9-154-1F2L] yielded an IC50 of 2.6 nM.

KMWGQYWQV [G9-154-2M] had an IC50 of 6.5 nM.

Turning to YTWGQYWQV [G9-154-1Y], 2.5 nM corresponded to half-maximal inhibition (IC50). This IC50 is about 2.6-fold lower than that of the molecule before.

Turning to KLWGQYWQV [G9-154-2L], the IC50 amounted to 2 nM.

FTWGQYWQV [G9-154-1F] displayed an IC50 of 1.6 nM.
